Substrate: N[C@@H](Cc1c[nH]c2ccccc12)C(=O)O
Test: initial rates of chlorination by UHPLC-UV, Michaelis-Menten fit
Type: biochemical, Xenorhabdus szentirmaii
Conditions: 20 mM NaCl, 0.05 mM NADH, 0.01 mM FAD, flavin reductase K12Fre 0.1 μM, phosphate pH 7.5, 25 °C

B1: XszenFHal (FHal16) (Xenorhabdus szentirmaii DSM 16338) (protein)
chain: MINSVLIVGGGTAGWMTAAYLSKAFDKNINITVVESKEVKKIGVGEATFSTVRHYFDYLGLNESEWLPECSGSYKLGIRFENWDGQGNHFYHPFERWEVVKGFPISEWWLSKKLKDQRFDYDTFLTPHLCEAKRSPRRLDGSLFAQSIDKSLGQSTLAEQRAQYPYAYHFDADGVASFLKRYAMNRGVKHIEDDVTHVEIDTNGNIGYLEAKIYGKLRADLYIDCTGFKGLLINKALNEPFISFSDVLKNNRAVALRVPRENENDIEPYTTARTMSNGWRWTIPLYKRNGYGYVYCNKYQSPEEAEMELRKSIPYENAECVANHIRMRIGRSNRSWVKNCVAIGLSSAFVEPLESTGIFFIQHGIEQLVRFFPRSSGNELLIEEYNTRVNRVVDGVKEFLLLHFSLAQRNDTLYWKEWKNVELPKELLKKITLAQDHLLDKETIYPFYHGFEEYSWNTMILGLCSGSLNNKPALSLMTSDEADEMLLQHYMKAENMVNNLPTCYEYLKHIHDLKNKN
notes: N-terminal His tag (modified pET22b(+)), expressed in E. coli BL21-CodonPlus (DE3)-RIPL
B1 showed a Km of 58.22 µM and a kcat of 0.074 s⁻¹.

— publication PMC6823310, “XszenFHal, a novel tryptophan 5-halogenase from Xenorhabdus szentirmaii” (AMB Express, 2019)
